In the DeepSol protein solubility set:

Assay: soluble on expression in E. coli; label from the status in PepcDB or PDB records

Soluble on expression in E. coli, soluble:
RRKQQAPRRAAAYVSEELKAAALVDEGLDPEEHTADGEPSAKYMCPEKELARACPSYQNSPAAEFSCHEMDSESHISETSDRMADFESGSIKNEEETKEVTVPLEDTTVSDSLEQMKAVYNNFLSNSYWSNLNLNLHQPSSEKNNGSSSSSSSSSSSCGSGSFDWHQSAMAKTLQQVSQSRMLPEPSLFSTVQLYRQSSKLYGSIFTGASKFRCKDCSAAYDTLVELTVHMNETGHYRDDNHETDNNNPKRWSKPRKRSLLEMEGKEDAQKVLKCMYCGHSFESLQDLSVHMIKTKHYQKVPLKEPVTPVAAKIIPATRKKASLELELPSSPDSTGGTPKATISDTNDALQKNSNPYITPNNRYGHQNGASYAWHFEARKSQILKCMECGSSHDTLQELTAHMMVTGHFIKVTNSAMKKGKPIVETPVTPTITTLLDEKVQSVPLAATTFTSPSNTPASISPKLNVEVKKEVDKEKAVTDEKPKQKDKPGEEEEKCDISSKYHYLTENDLEESPKGGLDILKSLENTVTSAINKAQNGTPSWGGYPSIHAAYQLPNMMKLSLGSSGKSTPLKPMFGNSEIVSPTKNQTLVSPPSSQTSPMPKTNFHAMEELVKKVTEKVAKVEEKMKEPDGKLSPPKRATPSPCSSEVGEPIKMEASSDGGFRSQENSPSPPRDGCKDGSPLAEPVENGKELVKPLASSLSGSTAIITDHPPEQPFVNPLSALQSVMNIHLGKAAKPSLPALDPMSMLFKMSNSLAEKAAVATPPPLQSKKADHLDRYFYHVNNDQPIDLTKGKSDKGCSLGSVLLSPTSTAPATSSSTVTTAKTSAVVSFMSNSPLRENALSDISDMLKNLTESHTSKSSTPSSISEKSDIDGATLEEAEESTPAQKRKGRQSNWNPQHLLILQAQFAASLRQTSEGKYIMSDLSPQERMHISRFTGLSMTTISHWLANVKYQLRRTGGTKFLKNLDTGHPVFFCNDCASQIRTPSTYISHLESHLGFRLRDLSKLSTEQINSQIAQTKSPSEKMVTSSPEEDLGTSYQCKLCNRTFASKHAVKLHLSKTHGKSPEDHLLYVSELEKQ
SNAMRVLTGLQPSGDLHIGNYFGAIKQMVDAQEKSQMFMFIANYHAMTSSQDGEKLKQNSLKAAAAFLSLGIDPQKSVFWLQSDVKEVMELYWILSQFTPMGLLERAHSYKDKVAKGLSASHGLFSYPVLMAADILLFDTRIVPVGKDQIQHVEIARDIALKVNNEWGEIFTLPEARVNEEVAVVVGTDGAKMSKSYQNTIDIFSSEKTLKKQISSIVTDSTALEDPKDHENCNIFKIAKLFLDESGQKELQIRYEKGGEGYGHFKIYLNELVNAYFKEAREKYNELLEKPSHLKEILDFGATKARKIAQEKMQKIYEKIGL

Soluble on expression in E. coli, not soluble:
MSLSISEKPLSELLRPKDFEDFVGQDHIFGNKGILRRTLKTGNMFSSILYGPPGSGKTSVFSLLKRYFNGEVVYLSSTVHGVSEIKNVLKRGEQLRKYGKKLLLFLDEIHRLNKNQQMVLVSHVERGDIVLVATTTENPSFVIVPALLSRCRILYFKKLSDEDLMKILKKATEVLNIDLEESVEKAIVRHSEGDARKLLNTLEIVHQAFKNKRVTLEDLETLLGNVSGYTKESHYDFASAFIKSMRGSDPNAAVYYLVKMIEMGEDPRFIARRMIIFASEDVGLADPNALHIAVSTSIAVEHVGLPECLMNLVECAVYLSLAPKSNSVYLAMKEGHHHHHH
MVKQRSELLFLYDVQWANPNGDPVDGNKPRIDEETGKNIVTDVRLKRTIRDYLYEYRHQEIFVREIAQDDDYIQDAKARAEDFLVKDGEKLDKSKLTLSEMKKIINDEVLRQCIDVRLFGVTLPIEKSSKEKSSITHTGPVQFKMGQSLHRVKLEYIKGTGAFASGGQMTQKTFREEYVLPYSLIAFYGVINETAARFTRLTEEDVELLVDAMWEGTKNLISRSKVGHVPRLLLRVVYQEPHFHIGELDKYISLHTEKAEEEIRDAQDYVLDVSRLIEVLAREKEKIANIELRQDERLVCNENLVDRLRQEGIVVDIR
MAHHHHHHMTDVAEGHQSYANAFISEGDRTSAVRYLDLFLRLYEEYCDVAEVEANSRVLQAATVMQSNSHAPDLLSYVVSAAALGIGGTRALAPALASLPLKVLNLSECYLGDAGLRVLAETLSASSHSTGGLRVLELRGISASDGSSVALLVTALRSLQLLDVSSNRFGTRPPGFALLCAAMGYHPALREVHIADNMVSGCCESCVGAIAEWLVKASRACMLQHVDLRFNTLGLYRRGLYNTVVDGKEVQCTLYGFYPLVDALLLNNSIEVLEVGNNGFPPGVLDAIEAKLAVNKRTKKALQEYYTNHIDR
MIRKALLFVEKNETWKKELQIAKSVETVRKRLGQSNLNACSPRKVPLLTVKHVAKQFEYDKIHKDGPVEKWRNIFWSDESKIVLLGGKGSRSYVRRPPRTEYNPRYTFKKFKNCLKGWAFCCLEHHHHHHH
